PMC4650537, “Loss of Caspase-3 sensitizes colon cancer cells to genotoxic stress via RIP1-dependent necrosis” (Cell Death & Disease, 2015)

Molecular target: T1, pro-caspase-8 (human (endogenous in HCT116), UniProt Q14790 1-479)
T1 construct: caspase-8, human, endogenous in HCT116 colon cancer cells; Precipitated with a caspase-8 antibody (IP-Cas-8); also called Cas-8; source: endogenous, HCT116 (WT or caspase-3 knockout) whole cell lysate
Assay: co-IP; IP with caspase-8 antibody (IP-Cas-8) from lysates of HCT116 WT or C3KO cells treated with DMSO or 5-FU (50 μg/ml) for 24 h; also with z-VAD (20 μM) and with or without glutathione (GSH, 10 μM); blots quantified (Supplementary Tables S2, S3)
Conditions: partners not purified

T1 sequence (Q14790 whole entry): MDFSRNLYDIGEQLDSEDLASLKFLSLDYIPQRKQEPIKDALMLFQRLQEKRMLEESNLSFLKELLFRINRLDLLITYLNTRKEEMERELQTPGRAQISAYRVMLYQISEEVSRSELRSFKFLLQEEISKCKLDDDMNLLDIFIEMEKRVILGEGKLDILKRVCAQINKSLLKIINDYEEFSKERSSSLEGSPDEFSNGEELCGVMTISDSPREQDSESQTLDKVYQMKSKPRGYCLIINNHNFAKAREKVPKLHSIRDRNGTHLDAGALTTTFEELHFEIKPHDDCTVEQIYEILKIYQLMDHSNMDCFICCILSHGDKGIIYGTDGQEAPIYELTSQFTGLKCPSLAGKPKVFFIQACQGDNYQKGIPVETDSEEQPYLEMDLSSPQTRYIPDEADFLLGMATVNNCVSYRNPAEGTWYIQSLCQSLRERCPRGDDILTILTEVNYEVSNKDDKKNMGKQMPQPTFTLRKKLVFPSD

B1: receptor (TNFRSF)-interacting serine-threonine kinase 1 (natural protein, human (endogenous in HCT116), UniProt Q13546 1-671, looked up)
chain: MQPDMSLNVIKMKSSDFLESAELDSGGFGKVSLCFHRTQGLMIMKTVYKGPNCIEHNEALLEEAKMMNRLRHSRVVKLLGVIIEEGKYSLVMEYMEKGNLMHVLKAEMSTPLSVKGRIILEIIEGMCYLHGKGVIHKDLKPENILVDNDFHIKIADLGLASFKMWSKLNNEEHNELREVDGTAKKNGGTLYYMAPEHLNDVNAKPTEKSDVYSFAVVLWAIFANKEPYENAICEQQLIMCIKSGNRPDVDDITEYCPREIISLMKLCWEANPEARPTFPGIEEKFRPFYLSQLEESVEEDVKSLKKEYSNENAVVKRMQSLQLDCVAVPSSRSNSATEQPGSLHSSQGLGMGPVEESWFAPSLEHPQEENEPSLQSKLQDEANYHLYGSRMDRQTKQQPRQNVAYNREEERRRRVSHDPFAQQRPYENFQNTEGKGTAYSSAASHGNAVHQPSGLTSQPQVLYQNNGLYSSHGFGTRPLDPGTAGPRVWYRPIPSHMPSLHNIPVPETNYLGNTPTMPFSSLPPTDESIKYTIYNSTGIQIGAYNYMEIGGTSSSLLDSTNTNFKEEPAAKYQAIFDNTTSLTDKHLDPIRENLGKHWKNCARKLGFTQSQIDEIDHDYERDGLKEKVYQMLQKWVMREGIKGATVGKLAQALHQCSRIDLLSSLIYVSQN
notes: also called RIP1; RIP; source: endogenous, HCT116 (WT or caspase-3 knockout) whole cell lysate
quantified 5-FU-induced RIP1 in the complex (with z-VAD; RIP1 term of the FADD to RIP1 ratio): 7.3

B2: Fas (TNFRSF6)-associated via death domain (natural protein, human (endogenous in HCT116), UniProt Q13158 1-208, looked up)
chain: MDPFLVLLHSVSSSLSSSELTELKFLCLGRVGKRKLERVQSGLDLFSMLLEQNDLEPGHTELLRELLASLRRHDLLRRVDDFEAGAAAGAAPGEEDLCAAFNVICDNVGKDWRRLARQLKVSDTKIDSIEDRYPRNLTERVRESLRIWKNTEKENATVAHLVGALRSCQMNLVADLVQEVQQARDLQNRSGAMSPMSWNSDASTSEAS
notes: FADD, human, endogenous in HCT116 colon cancer cells; also called FADD; source: endogenous, HCT116 (WT or caspase-3 knockout) whole cell lysate
quantified 5-FU-induced FADD in the complex (C3KO cells, without z-VAD; FADD term of the FADD to RIP1 ratio): 1.82
quantified 5-FU-induced FADD in the complex (with z-VAD; FADD term of the FADD to RIP1 ratio): 7.5
